# Substitutions are numbered along the chain they refer to.
# B1: Ark2C RING domain (residues 255-346), as it stands in the UbArk2C fusion (domain or fragment, human, UniProt Q6ZSG1 255-346, looked up)
# chain: GAVQNTIERFTFPHKYKKRRPQDGKGKKDEGEESDTDEKCTICLSMLEDGEDVRRLPCMHLFHQLCVDQWLAMSKKCPICRVDIETQLGADS
# notes: Ark2C (RNF165), human, RING domain, residues 255-346; Used for the pair rows of the Ark2C part of the fusion m2 (structures and cross-links); also called RNF165; source: E. coli BL21 (DE3), purified, as part of the UbArk2C fusion
# B2: GST-Ark2C^KK/AA (Lys271 and Lys272 to alanine) (domain or fragment, human, UniProt Q6ZSG1 255-346, looked up)
# chain: B1 chain with K17A, K18A
# notes: Ark2C (RNF165), human, RING domain, residues 255-346; The functional row uses this molecule, although the activity assays were done with the protein after cleavage of GST; source: E. coli BL21 (DE3), immobilised on Glutathione Sepharose resin; not shown: GST, N-terminal, kept
# B3: GST-Ark2C-ΔAcidic (Δ283-291) (domain or fragment, human, UniProt Q6ZSG1 255-346, looked up)
# chain: GAVQNTIERFTFPHKYKKRRPQDGKGKKEKCTICLSMLEDGEDVRRLPCMHLFHQLCVDQWLAMSKKCPICRVDIETQLGADS
# notes: Ark2C (RNF165), human, RING domain, residues 255-346, without most of the acidic residues of the β3-RING loop; source: E. coli BL21 (DE3), immobilised on Glutathione Sepharose resin; not shown: GST, N-terminal, kept
# How the values were obtained:
# [1] = molecular target: T1, ubiquitin (UniProt P0CG48 1-76); assay: crystal structure; UbArk2C fusion alone, 2.5 Å, PDB 7R70; crystals from 1.6 M Na3Citrate, 16 °C; two copies in the asymmetric unit; conditions: both partners purified
# T1 construct: ubiquitin, the mature protein; cloned into pET-3a, expressed untagged; Some pull-downs used a Cy3-labelled variant with an added N-terminal Met-Cys; also called Ub^R; Ub^D; source: E. coli BL21 (DE3), purified (HiTrap SP HP, Superdex 75)
# [2] = molecular target: T1, ubiquitin; assay: pull-down; GST-Ark2C proteins immobilised on Glutathione Sepharose mixed with ubiquitin; PBS pH 7.4, 0.2% Tween 20, 2 mM DTT, 4 °C, 30 min; washed four times with PBS; conditions: both partners purified
Binder,binding result [1],binding result [2]
B1,binds,
B2,,binds
B3,,binds

# From article PMC8897509 (Nature Communications, 2022)
